Measurements from publication PMC3043095.

Tests used:
[1] = target: leafhopper actin (Circulifer haematoceps, Ciha-1 cells) (Circulifer haematoceps (endogenous in Ciha-1))
[2] = target: leafhopper actin (Circulifer haematoceps, Ciha-1 cells) (Circulifer haematoceps (endogenous in Ciha-1)); remark: listed apart in the source

## His6-tagged PGK-FL4 (S. citri PGK amino acids 101 to 412) (from UniProt Q7WTU1 101-412) (domain or fragment)
[1]
  S. citri transmission by infected leafhoppers injected with 0.2 µg PGK-FL4: relative percentage of batches with positive culture (phosphate buffer = 100) (% relative to phosphate buffer control): 101

## His6-tagged PGK-FL5 (S. citri PGK amino acids 49 to 154) (from UniProt Q7WTU1 49-154) (domain or fragment)
[1]
  S. citri transmission by infected leafhoppers injected with 0.2 µg PGK-FL5: relative percentage of batches with positive culture (phosphate buffer = 100) (% relative to phosphate buffer control): 58.6
[2]
  reduction of S. citri internalization into Ciha-1 cells (gentamicin protection assay) after preincubation of cells with 50 and 400 µg/ml PGK-FL5 (45% and 80%) (% reduction of internalization): 80

## Spiroplasma citri phosphoglycerate kinase, His6-tagged, full length (from UniProt Q7WTU1 1-412) (enzyme)
[1]
  S. citri transmission by infected leafhoppers injected with 0.2 µg His6-tagged PGK: relative percentage of batches with positive culture (phosphate buffer = 100) (% relative to phosphate buffer control): 51.7
[2]
  inhibition of S. citri internalization into Ciha-1 cells (gentamicin protection assay) after preincubation of cells with 400 µg/ml His6-tagged PGK (% inhibition of invasion): 85
